What was measured:
Assay in all cases: quantitative Coomassie blue staining of the co-purified complex; KIF5-mScarlet-StrepII and His-FLAG-KLC1 co-expressed in Sf9, purified on Streptactin XT and by SEC
Details in all cases: partners not purified
[1] = target: T1, full-length human KIF5B-mScarlet-StrepII (human, UniProt P33176 1-963)
T1 construct: kinesin heavy chain KIF5B, human, cDNA BC126281, full length (aa 1-963); 2x Prescission protease sites lie between KIF5B and mScarlet; also called KIF5B-WT; wild-type KIF5B; source: Sf9 (baculovirus), purified (Streptactin XT, SEC); also co-expressed with KLC1 and co-purified; not shown: mScarlet, C-terminal, kept
T1 sequence (looked up): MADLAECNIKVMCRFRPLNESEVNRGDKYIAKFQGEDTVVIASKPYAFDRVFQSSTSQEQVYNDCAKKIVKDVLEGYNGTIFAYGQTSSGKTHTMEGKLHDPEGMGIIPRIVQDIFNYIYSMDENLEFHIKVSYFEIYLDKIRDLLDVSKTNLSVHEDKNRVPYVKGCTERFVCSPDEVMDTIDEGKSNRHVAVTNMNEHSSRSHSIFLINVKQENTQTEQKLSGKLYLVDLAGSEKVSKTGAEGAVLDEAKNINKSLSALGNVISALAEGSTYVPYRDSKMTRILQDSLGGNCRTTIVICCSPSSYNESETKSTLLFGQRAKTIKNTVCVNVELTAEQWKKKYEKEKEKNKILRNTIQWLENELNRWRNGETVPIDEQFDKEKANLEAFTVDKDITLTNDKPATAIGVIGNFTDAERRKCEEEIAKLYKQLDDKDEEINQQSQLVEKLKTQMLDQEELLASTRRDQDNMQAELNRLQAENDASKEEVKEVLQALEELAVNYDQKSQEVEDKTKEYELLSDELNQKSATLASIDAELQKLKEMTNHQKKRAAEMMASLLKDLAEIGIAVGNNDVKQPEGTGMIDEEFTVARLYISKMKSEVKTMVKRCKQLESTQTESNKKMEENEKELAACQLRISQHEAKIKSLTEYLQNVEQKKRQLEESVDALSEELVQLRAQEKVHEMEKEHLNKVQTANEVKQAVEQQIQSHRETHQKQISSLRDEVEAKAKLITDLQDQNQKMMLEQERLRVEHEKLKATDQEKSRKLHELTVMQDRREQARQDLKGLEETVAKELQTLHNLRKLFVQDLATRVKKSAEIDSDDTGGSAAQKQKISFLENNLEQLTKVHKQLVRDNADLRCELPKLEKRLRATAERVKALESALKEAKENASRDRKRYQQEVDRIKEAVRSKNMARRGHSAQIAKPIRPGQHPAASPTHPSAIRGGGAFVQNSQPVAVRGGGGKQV

[2] = target: T2, full-length human KIF5A-mScarlet-StrepII (human, UniProt Q12840 1-1032)
T2 construct: kinesin heavy chain KIF5A, human, cDNA BC146670, full length; 2x Prescission protease sites lie between KIF5A and mScarlet; also called KIF5A dimer; KHC; source: Sf9 (baculovirus), purified (Streptactin XT, SEC); also co-expressed with KLC1 and co-purified; not shown: mScarlet, C-terminal, kept
T2 sequence (looked up): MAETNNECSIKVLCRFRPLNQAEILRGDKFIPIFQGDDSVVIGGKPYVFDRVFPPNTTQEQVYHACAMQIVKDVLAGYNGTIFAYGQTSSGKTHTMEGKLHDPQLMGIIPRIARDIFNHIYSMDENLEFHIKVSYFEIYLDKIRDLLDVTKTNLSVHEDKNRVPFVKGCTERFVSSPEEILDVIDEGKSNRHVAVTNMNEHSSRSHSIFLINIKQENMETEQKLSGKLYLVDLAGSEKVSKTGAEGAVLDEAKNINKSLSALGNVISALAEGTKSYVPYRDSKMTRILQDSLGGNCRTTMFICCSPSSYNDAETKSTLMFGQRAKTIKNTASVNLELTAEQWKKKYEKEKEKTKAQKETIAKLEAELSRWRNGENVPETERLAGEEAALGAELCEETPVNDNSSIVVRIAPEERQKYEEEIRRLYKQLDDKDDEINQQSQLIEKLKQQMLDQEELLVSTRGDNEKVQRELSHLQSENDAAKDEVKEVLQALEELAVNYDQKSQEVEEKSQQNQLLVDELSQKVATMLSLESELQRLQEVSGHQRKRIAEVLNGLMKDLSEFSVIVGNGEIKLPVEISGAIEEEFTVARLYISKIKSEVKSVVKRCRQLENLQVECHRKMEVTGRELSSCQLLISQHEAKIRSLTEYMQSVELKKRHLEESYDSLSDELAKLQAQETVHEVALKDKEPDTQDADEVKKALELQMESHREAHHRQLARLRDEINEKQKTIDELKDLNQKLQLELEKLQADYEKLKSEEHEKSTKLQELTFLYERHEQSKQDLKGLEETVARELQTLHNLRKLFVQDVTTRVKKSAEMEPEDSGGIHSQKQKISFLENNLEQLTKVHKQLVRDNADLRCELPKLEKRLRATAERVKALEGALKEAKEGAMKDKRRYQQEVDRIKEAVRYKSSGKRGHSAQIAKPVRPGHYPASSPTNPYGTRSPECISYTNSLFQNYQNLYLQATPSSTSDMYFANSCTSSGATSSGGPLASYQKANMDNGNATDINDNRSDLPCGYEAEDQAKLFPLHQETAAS

[3] = target: T3, full-length human KIF5C-mScarlet-StrepII (human, UniProt O60282 1-957)
T3 construct: kinesin heavy chain KIF5C, human, cDNA BC110287, full length; 2x Prescission protease sites lie between KIF5C and mScarlet; also called KHC; source: Sf9 (baculovirus), purified (Streptactin XT, SEC); also co-expressed with KLC1 and co-purified; not shown: mScarlet, C-terminal, kept
T3 sequence (looked up): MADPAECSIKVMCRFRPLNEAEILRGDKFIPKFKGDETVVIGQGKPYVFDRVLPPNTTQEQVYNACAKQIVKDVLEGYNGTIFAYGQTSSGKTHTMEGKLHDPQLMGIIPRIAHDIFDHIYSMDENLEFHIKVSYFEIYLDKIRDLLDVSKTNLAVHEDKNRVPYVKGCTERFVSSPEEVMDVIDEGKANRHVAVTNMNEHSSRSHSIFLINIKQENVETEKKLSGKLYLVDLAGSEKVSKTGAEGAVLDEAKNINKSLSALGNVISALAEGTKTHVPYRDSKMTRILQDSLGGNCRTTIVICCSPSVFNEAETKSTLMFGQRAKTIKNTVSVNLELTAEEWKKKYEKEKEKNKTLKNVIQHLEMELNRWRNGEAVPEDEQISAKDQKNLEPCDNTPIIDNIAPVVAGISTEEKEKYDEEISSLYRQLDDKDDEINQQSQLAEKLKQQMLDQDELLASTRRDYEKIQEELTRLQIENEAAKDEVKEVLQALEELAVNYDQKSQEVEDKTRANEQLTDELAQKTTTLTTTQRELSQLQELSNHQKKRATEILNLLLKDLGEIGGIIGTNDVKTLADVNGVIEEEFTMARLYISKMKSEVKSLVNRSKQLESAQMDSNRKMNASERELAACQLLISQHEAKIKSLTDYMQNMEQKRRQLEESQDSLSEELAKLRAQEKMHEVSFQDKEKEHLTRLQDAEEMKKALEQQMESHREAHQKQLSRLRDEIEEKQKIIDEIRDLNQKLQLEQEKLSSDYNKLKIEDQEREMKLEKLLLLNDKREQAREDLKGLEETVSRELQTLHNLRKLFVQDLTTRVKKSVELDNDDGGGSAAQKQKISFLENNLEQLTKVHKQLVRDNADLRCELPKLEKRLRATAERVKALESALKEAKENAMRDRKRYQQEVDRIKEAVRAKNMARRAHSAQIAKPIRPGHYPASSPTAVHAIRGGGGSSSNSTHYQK

Measured: stoichiometry N

B1: 6xHis-FLAG-human KLC1 (co-expressed with KIF5) (natural protein, UniProt Q07866 1-573, looked up)
chain: MYDNMSTMVYIKEDKLEKLTQDEIISKTKQVIQGLEALKNEHNSILQSLLETLKCLKKDDESNLVEEKSNMIRKSLEMLELGLSEAQVMMALSNHLNAVESEKQKLRAQVRRLCQENQWLRDELANTQQKLQKSEQSVAQLEEEKKHLEFMNQLKKYDDDISPSEDKDTDSTKEPLDDLFPNDEDDPGQGIQQQHSSAAAAAQQGGYEIPARLRTLHNLVIQYASQGRYEVAVPLCKQALEDLEKTSGHDHPDVATMLNILALVYRDQNKYKDAANLLNDALAIREKTLGKDHPAVAATLNNLAVLYGKRGKYKEAEPLCKRALEIREKVLGKDHPDVAKQLNNLALLCQNQGKYEEVEYYYQRALEIYQTKLGPDDPNVAKTKNNLASCYLKQGKFKQAETLYKEILTRAHEREFGSVDDENKPIWMHAEEREECKGKQKDGTSFGEYGGWYKACKVDSPTVTTTLKNLGALYRRQGKFEAAETLEEAAMRSRKQGLDNVHKQRVAEVLNDPENMEKRRSRESLNVDVVKYESGPDGGEEVSMSVEWNGGVSGRASFCGKRQQQQWPGRRHR
notes: kinesin light chain 1, human, cDNA BC008881; also called kinesin light chain; source: Sf9, co-expressed with KIF5 from a multi-gene baculovirus, co-purified (Streptactin XT, SEC)
~0.8 KLC1 per KHC: all assays above

From PMC9365671, “Synergistic autoinhibition and activation mechanisms control kinesin-1 motor activity” (Cell reports, 2022)
